The results in this text go back to IntAct's records for PubMed 23622245.

Sequences and labels used below:
B1: 26S proteasome non-ATPase regulatory subunit 9 (Drosophila melanogaster (Fruit fly)), Q9VFS8 (parent)
chain: MAAGTTTKERLERLINAKKQLEAQINRNGQILAANDNVGMSGPLVDAEGFPRNDIDVYQVRLARQTIICLQNDHKELMNQIQTLLNQYHSEIATTDPELVNRASALDLDSDRSPGGANITDLAPARAIVVVNLVSPDSPAERAGLCAGDAILRFGSINSGNFKGDLAQIGELVRNMQSQNVQLKVKRGEQQLDLILVPKTWSGRGLLGCNIVLPPEAMDH
partner: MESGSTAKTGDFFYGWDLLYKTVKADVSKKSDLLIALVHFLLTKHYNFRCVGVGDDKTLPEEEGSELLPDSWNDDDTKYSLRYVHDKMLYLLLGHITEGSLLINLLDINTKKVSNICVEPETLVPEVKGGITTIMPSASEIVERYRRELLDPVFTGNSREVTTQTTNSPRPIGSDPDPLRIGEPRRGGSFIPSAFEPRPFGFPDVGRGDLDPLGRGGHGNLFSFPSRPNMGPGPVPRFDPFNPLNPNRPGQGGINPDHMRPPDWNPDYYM
B2: Proteasome inhibitor PI31 subunit (Drosophila melanogaster (Fruit fly)), Q9V637 (parent)
chain: B1 partner
partner: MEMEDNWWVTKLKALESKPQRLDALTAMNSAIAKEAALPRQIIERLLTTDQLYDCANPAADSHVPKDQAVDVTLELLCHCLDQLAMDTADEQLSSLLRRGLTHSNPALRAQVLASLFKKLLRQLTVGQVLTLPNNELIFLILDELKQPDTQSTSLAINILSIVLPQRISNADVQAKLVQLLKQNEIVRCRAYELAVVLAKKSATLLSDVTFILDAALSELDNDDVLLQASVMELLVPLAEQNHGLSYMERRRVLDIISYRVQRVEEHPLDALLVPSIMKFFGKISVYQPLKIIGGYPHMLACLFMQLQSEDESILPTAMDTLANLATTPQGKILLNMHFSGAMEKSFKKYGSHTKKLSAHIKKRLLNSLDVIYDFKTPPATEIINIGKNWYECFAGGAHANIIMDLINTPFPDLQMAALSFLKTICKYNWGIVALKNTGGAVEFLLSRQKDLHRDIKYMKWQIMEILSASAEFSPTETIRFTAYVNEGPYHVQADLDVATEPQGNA
B3: Proteasome inhibitor PI31 subunit (Drosophila melanogaster (Fruit fly)), Q9V637 (parent)
chain: B1 partner
partner: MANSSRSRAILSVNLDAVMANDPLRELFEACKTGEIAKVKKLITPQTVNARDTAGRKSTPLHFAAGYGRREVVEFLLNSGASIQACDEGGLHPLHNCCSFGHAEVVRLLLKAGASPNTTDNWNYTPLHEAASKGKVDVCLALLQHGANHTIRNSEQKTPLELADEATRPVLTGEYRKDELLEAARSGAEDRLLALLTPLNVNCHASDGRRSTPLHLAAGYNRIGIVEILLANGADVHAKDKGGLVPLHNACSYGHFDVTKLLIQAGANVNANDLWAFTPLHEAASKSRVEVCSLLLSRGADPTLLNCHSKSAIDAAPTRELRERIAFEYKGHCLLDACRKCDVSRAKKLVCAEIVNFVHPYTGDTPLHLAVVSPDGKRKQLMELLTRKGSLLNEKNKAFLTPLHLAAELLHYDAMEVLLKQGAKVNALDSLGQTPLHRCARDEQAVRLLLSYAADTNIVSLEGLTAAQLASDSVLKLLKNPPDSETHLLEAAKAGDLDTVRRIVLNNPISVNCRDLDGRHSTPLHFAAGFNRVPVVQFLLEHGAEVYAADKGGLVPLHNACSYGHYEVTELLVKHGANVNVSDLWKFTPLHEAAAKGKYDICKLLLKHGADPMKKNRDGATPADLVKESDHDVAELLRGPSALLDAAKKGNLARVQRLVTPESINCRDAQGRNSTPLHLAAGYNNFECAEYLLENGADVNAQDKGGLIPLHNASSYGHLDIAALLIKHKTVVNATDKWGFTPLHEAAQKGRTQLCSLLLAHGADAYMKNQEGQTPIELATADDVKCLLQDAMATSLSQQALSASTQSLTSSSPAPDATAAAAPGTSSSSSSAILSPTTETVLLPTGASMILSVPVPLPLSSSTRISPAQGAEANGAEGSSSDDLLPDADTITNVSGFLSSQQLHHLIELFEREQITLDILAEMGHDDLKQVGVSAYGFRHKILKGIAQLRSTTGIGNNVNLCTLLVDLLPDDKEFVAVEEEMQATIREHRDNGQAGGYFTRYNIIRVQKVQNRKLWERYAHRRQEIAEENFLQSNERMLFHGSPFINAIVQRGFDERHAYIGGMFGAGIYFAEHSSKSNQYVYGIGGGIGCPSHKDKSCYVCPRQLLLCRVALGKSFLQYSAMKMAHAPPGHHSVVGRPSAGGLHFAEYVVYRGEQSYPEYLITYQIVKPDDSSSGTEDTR
B4: 26S proteasome non-ATPase regulatory subunit 5 (Drosophila melanogaster (Fruit fly)), Q9VYG1 (parent)
chain: B2 partner
partner: B1 partner
B5: Proteasome inhibitor PI31 subunit (Drosophila melanogaster (Fruit fly)), Q9V637 (parent)
chain: B1 partner
partner: B1 chain

One assay covers variants of B1. To be noted: with psmf1_drome PI31, Q9V637.
In the case of MAAGTTTKARLERLINAKKQLEAQINRNGQILAANDNVGMSGPLVDAEGFPRNDIDVYQVRLARQTIICLQNDHKELMNQIQTLLNQYHSEIATTDPELVNRASALDLDSDRSPGGANITDLAPARAIVVVNLVSPDSPAERAGLCAGDAILRFGSINSGNFKGDLAQIGELVRNMQSQNVQLKVKRGEQQLDLILVPKTWSGRGLLGCNIVLPPEAMDH [E9A], the “effect of a mutation on the interaction” value was “disrupting interaction strength”.

As for MAAGTTTKERLERLINAKKQLEAQINRNGQILAANDNVGMSGPLVDAEGFPRNDIDVYQVRLARQTIICLQNDHKELMNQIQTLLNQYHSEIATTDPELVNRASALDLDSDRSPGGANITDLAPARAIVVVNLVSPDSPAERAGLCAGDAILRFGSINSGNFKGDLAQIGELVRNMQSQNVQLKVKAGEQQLDLILVPKTWSGRGLLGCNIVLPPEAMDH [R187A], the “effect of a mutation on the interaction” value was “disrupting interaction strength”.

Variants of B2 are the subject of a further assay. The settings on record: with psmd5_drome psmd5, Q9VYG1.
On to MESGSTAKTGDFFYGWDLLYKTVKADVSKKSDLLIALVHFLLTKHYNFRCVGVGDDKTLPEEEGSELLPDSWNDDDTKYSLRYVHDKMLYLLLGHITEGSLLINLLDINTKKVSNICVEPETLVPEVKGGITTIMPSASEIVERYRRELLDPVFTGNSREVTTQTTNSPRPIGSDPDPLRIGEPRRGGSFIPSAFEPRPFGFPDVGRGDADPLGRGGHGNLFSFPSRPNMGPGPVPRFDPFNPLNPNRPGQGGINPDHMRPPDWNPDYYM [L210A], for which the “effect of a mutation on the interaction” value is given as “disrupting interaction strength”.

Regarding MESGSTAKTGDFFYGWDLLYKTVKADVSKKSDLLIALVHFLLTKHYNFRCVGVGDDKTLPEEEGSELLPDSWNDDDTKYSLRYVHDKMLYLLLGHITEGSLLINLLDINTKKVSNICVEPETLVPEVKGGITTIMPSASEIVERYRRELLDPVFTGNSREVTTQTTNSPRPIGSDPDPLRIGEPRRGGSFIPSAFEPRPFGFPDVGRGDLDPLGRGGHGNLFSFPSRPNMGPGPVPRFDPANPLNPNRPGQGGINPDHMRPPDWNPDYYM [F241A], the “effect of a mutation on the interaction” value is reported as “disrupting interaction strength”.

Variants of B3 are the subject of a further assay. The settings on record: with tnks_drome Tnks.
On to MESGSTAKTGDFFYGWDLLYKTVKADVSKKSDLLIALVHFLLTKHYNFRCVGVGDDKTLPEEEGSELLPDSWNDDDTKYSLRYVHDKMLYLLLGHITEGSLLINLLDINTKKVSNICVEPETLVPEVKGGITTIMPSASEIVERYRRELLDPVFTGNSREVTTQTTNSPRPIGSDPDPLRIGEPRRGGSFIPSAFEPRPFGFPDVGRGDLDPLGRGGHGNLFSFPSRPNMGPGPVPRFDPANPLNPNRPGQGGINPDHMRPPDWNPDYYM [F241A], for which the “effect of a mutation on the interaction” value is given as “disrupting interaction strength”.

As for MESGSTAKTGDFFYGWDLLYKTVKADVSKKSDLLIALVHFLLTKHYNFACVGVADDKTLPEEEGSELLPDSWNDDDTKYSLRYVHDKMLYLLLGHITEGSLLINLLDINTKKVSNICVEPETLVPEVKGGITTIMPSASEIVERYRRELLDPVFTGNSREVTTQTTNSPRPIGSDPDPLRIGEPRRGGSFIPSAFEPRPFGFPDVGRGDLDPLGRGGHGNLFSFPSRPNMGPGPVPRFDPFNPLNPNRPGQGGINPDHMRPPDWNPDYYM [R49A;G54A], the “effect of a mutation on the interaction” value was “disrupting interaction strength”.

MESGSTAKTGDFFYGWDLLYKTVKADVSKKSDLLIALVHFLLTKHYNFRCVGVGDDKTLPEEEGSELLPDSWNDDDTKYSLRYVHDKMLYLLLGHITEGSLLINLLDINTKKVSNICVEPETLVPEVKGGITTIMPSASEIVERYRRELLDPVFTGNSREVTTQTTNSPRPIGSDPDPLRIGEPRRGGSFIPSAFEPRPFGFPDVGRGDADPLGRGGHGNLFSFPSRPNMGPGPVPRFDPFNPLNPNRPGQGGINPDHMRPPDWNPDYYM [L210A]: the “effect of a mutation on the interaction” value is reported as “disrupting interaction strength”.

In a further assay the parent is B4. To be noted: with psmf1_drome PI31, Q9V637.
For the variant MEMEDNWWVTKLKALESKPQRLDALTAMNSAIAKEAALPRQIIARLLTTDQLYDCANPAADSHVPKDQAVDVTLELLCHCLDQLAMDTADEQLSSLLRRGLTHSNPALRAQVLASLFKKLLRQLTVGQVLTLPNNELIFLILDELKQPDTQSTSLAINILSIVLPQRISNADVQAKLVQLLKQNEIVRCRAYELAVVLAKKSATLLSDVTFILDAALSELDNDDVLLQASVMELLVPLAEQNHGLSYMERRRVLDIISYRVQRVEEHPLDALLVPSIMKFFGKISVYQPLKIIGGYPHMLACLFMQLQSEDESILPTAMDTLANLATTPQGKILLNMHFSGAMEKSFKKYGSHTKKLSAHIKKRLLNSLDVIYDFKTPPATEIINIGKNWYECFAGGAHANIIMDLINTPFPDLQMAALSFLKTICKYNWGIVALKNTGGAVEFLLSRQKDLHRDIKYMKWQIMEILSASAEFSPTETIRFTAYVNEGPYHVQADLDVATEPQGNA [E44A], the “effect of a mutation on the interaction” value is reported as “disrupting interaction strength”.

Regarding MEMEDNWWVTKLKALESKPQRLDALTAMNSAIAKEAALPRQIIERLLTTDQLYDCANPAADSHVPKDQAVDVTLELLCHCLDQLAMDTADEQLSSLLRRGLTHSNPALRAQVLASLFKKLLRQLTVGQVLTLPNNELIFLILDELKQPDTQSTSLAINILSIVLPQRISNADVQAKLVQLLKQNEIVRCRAYELAVVLAKKSATLLSDVTFILDAALSELDNDDVLLQASVMELLVPLAEQNHGLSYMERRRVLDIISYRVQAVEEHPLDALLVPSIMKFFGKISVYQPLKIIGGYPHMLACLFMQLQSEDESILPTAMDTLANLATTPQGKILLNMHFSGAMEKSFKKYGSHTKKLSAHIKKRLLNSLDVIYDFKTPPATEIINIGKNWYECFAGGAHANIIMDLINTPFPDLQMAALSFLKTICKYNWGIVALKNTGGAVEFLLSRQKDLHRDIKYMKWQIMEILSASAEFSPTETIRFTAYVNEGPYHVQADLDVATEPQGNA [R263A], the “effect of a mutation on the interaction” value was “disrupting interaction strength”.

The variants in a further assay derive from B5. The settings on record: with psmd9_drome psmd9, Q9VFS8.
Take MESGSTAKTGDFFYGWDLLYKTVKADVSKKSDLLIALVHFLLTKHYNFRCVGVGDDKTLPEEEGSELLPDSWNDDDTKYSLRYVHDKMLYLLLGHITEGSLLINLLDINTKKVSNICVEPETLVPEVKGGITTIMPSASEIVERYRRELLDPVFTGNSREVTTQTTNSPRPIGSDPDPLRIGEPRRGGSFIPSAFEPRPFGFPDVGRGDADPLGRGGHGNLFSFPSRPNMGPGPVPRFDPFNPLNPNRPGQGGINPDHMRPPDWNPDYYM [L210A]: the “effect of a mutation on the interaction” value was “disrupting interaction strength”.

For the variant MESGSTAKTGDFFYGWDLLYKTVKADVSKKSDLLIALVHFLLTKHYNFRCVGVGDDKTLPEEEGSELLPDSWNDDDTKYSLRYVHDKMLYLLLGHITEGSLLINLLDINTKKVSNICVEPETLVPEVKGGITTIMPSASEIVERYRRELLDPVFTGNSREVTTQTTNSPRPIGSDPDPLRIGEPRRGGSFIPSAFEPRPFGFPDVGRGDLDPLGRGGHGNLFSFPSRPNMGPGPVPRFDPANPLNPNRPGQGGINPDHMRPPDWNPDYYM [F241A], the “effect of a mutation on the interaction” value is “disrupting interaction strength”.
